Measured values reported in US20250084174A1 (AstraZeneca / MedImmune, published 2025).

What was measured:
[1] = target: T1, CCR5 (UniProt P51681 1-352, limits assumed); assay: binding to cells expressing CCR5, fluorescence counts (FL1 Counts) against Log M
T1 construct: whole, on cells; The cell line is not described

[2] = target: T2, human CCR9B (human, UniProt P51686 13-369); assay: binding to HEK cells expressing human CCR9B, fluorescence counts (FL1 Counts) against Log M
T2 construct: Overexpressed on HEK cells; also called Hu B HEK; hCCR9 isoform B
T2 sequence: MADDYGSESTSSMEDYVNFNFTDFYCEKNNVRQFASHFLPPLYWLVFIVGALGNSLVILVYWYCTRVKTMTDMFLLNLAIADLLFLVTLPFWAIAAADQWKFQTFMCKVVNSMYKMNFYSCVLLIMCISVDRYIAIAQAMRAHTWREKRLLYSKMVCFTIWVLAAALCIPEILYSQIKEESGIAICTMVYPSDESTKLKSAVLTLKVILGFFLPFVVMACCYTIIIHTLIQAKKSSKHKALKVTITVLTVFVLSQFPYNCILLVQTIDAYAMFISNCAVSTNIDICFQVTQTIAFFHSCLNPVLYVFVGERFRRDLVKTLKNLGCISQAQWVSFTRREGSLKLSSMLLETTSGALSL

[3] = target: T3, CXCR1 (UniProt P25024 1-350, limits assumed); assay: binding to cells expressing CXCR1, fluorescence counts (FL1 Counts) against Log M
T3 construct: whole, on cells; The cell line is not described
T3 sequence (looked up): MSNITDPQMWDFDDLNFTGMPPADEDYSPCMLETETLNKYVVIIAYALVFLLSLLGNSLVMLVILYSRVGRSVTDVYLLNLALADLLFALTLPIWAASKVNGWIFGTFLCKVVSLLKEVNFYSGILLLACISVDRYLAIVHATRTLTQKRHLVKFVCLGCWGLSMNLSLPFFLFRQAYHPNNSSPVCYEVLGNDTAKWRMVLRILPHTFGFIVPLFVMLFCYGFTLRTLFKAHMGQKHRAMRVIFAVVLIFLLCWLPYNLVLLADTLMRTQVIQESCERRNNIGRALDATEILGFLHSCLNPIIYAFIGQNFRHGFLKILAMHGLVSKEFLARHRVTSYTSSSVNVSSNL

[4] = target: T4, cynomolgus CCR9 (cynomolgus, UniProt Q0H741 1-369); assay: binding to HEK cells expressing cynomolgus CCR9, fluorescence counts (FL1 Counts) against Log M
T4 construct: Overexpressed on HEK cells, or endogenous on cynomolgus PBMC; also called cynomolgus CCR9A; Cyno HEK
T4 sequence: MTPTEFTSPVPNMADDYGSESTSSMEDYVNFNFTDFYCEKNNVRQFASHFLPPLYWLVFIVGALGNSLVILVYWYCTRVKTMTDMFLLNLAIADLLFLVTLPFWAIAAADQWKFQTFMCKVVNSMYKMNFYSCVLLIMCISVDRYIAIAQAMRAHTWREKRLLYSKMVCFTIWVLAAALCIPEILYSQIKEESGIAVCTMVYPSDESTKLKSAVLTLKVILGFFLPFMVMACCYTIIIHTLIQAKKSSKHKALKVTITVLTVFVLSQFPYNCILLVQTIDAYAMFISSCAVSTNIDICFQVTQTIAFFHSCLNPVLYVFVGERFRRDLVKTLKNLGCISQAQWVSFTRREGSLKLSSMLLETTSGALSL

[5] = target: T5, CXCR2 (UniProt P25025 1-360, limits assumed); assay: binding to cells expressing CXCR2, fluorescence counts (FL1 Counts) against Log M
T5 construct: whole, on cells; The cell line is not described
T5 sequence (looked up): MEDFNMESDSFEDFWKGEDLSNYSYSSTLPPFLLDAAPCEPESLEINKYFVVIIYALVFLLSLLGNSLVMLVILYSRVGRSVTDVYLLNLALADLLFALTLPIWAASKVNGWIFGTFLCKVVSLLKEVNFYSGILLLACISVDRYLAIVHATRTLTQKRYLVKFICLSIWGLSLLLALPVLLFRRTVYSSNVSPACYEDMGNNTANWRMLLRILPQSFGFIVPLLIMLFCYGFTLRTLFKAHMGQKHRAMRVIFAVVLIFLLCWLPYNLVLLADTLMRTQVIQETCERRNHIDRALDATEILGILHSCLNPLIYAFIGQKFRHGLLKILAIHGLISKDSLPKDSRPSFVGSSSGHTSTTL

[6] = target: T6, CCR8 (UniProt P51685 1-355, limits assumed); assay: binding to cells expressing CCR8, fluorescence counts (FL1 Counts) against Log M
T6 construct: whole, on cells; The cell line is not described
T6 sequence (P51685 whole entry): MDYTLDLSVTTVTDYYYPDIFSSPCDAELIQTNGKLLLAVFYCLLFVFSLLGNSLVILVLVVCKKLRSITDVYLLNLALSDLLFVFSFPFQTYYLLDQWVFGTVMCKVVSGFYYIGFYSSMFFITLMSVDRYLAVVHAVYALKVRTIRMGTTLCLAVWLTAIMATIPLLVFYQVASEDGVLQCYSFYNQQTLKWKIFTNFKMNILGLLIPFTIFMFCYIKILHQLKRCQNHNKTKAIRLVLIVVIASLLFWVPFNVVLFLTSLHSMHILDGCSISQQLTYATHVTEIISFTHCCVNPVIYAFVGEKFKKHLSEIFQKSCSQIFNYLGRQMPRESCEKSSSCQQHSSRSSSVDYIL

T1 sequence (P51681 whole entry): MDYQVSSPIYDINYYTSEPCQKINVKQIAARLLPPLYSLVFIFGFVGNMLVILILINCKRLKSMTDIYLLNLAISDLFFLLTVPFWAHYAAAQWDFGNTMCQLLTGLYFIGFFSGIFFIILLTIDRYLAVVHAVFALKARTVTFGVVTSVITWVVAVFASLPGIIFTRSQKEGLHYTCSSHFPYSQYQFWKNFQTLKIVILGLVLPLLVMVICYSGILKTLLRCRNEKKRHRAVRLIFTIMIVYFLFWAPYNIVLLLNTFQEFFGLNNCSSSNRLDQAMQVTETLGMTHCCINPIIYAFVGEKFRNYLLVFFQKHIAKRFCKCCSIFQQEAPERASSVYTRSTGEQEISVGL

- binding result [2]: binds
- EC50 (read off the curve) [4]: ~0.4 nM
B1: humanised AB1020243 afuc (AB1020243-fgl) (antibody, V domains shown)
VH: QVQLVQSGAEVKKPGASVKVSCKASGYTFTSYWMHWVRQAPGQGLEWIGVIYPGNSDTRYNQKFKGRVTITRDTSASTAYMELSSLRSEDTAVYYCTRDYYSNYVYYYAMDYWGQGTTVTVSS
VL: DIVMTQTPLSLPVTPGEPASISCRSSQSLVHSNGNTYLHWYLQKPGQSPQLLIYKVSNRFSGVPDRFSGSGSGTDFTLKISRVEAEDVGVYYCSQSTHVPWTFGQGTKLEIK
modifications: afucosylated form; in the LigandTracer assay DyLight 650 Maleimide on an engineered cysteine residue in the CH2 region
notes: Human IgG1 format is stated for LigandTracer; Full chains are not tied to the tested lot
- binding result [1]: no binding (tested: Log M about -6.5 (about 3e-7 M))
- binding result [3]: no binding (tested: Log M about -6.5 (about 3e-7 M))
- binding result [5]: no binding (tested: Log M about -6.5 (about 3e-7 M))
- binding result [6]: no binding (tested: Log M about -6.5 (about 3e-7 M))
